{"source": "paper PMC12009414", "assay_in_all_cases": "cryo-EM structure", "settings_in_all_cases": "remark: other sources report otherwise", "key": {"[1]": {"target": "T1, human DNA polymerase θ helicase domain (residues 1-894) (human), O75417"}, "[2]": {"target": "T1, human DNA polymerase θ helicase domain …", "remark": "listed apart in the source"}, "[3]": {"target": "T1, human DNA polymerase θ helicase domain …", "remark": "listed apart in the source"}}, "note": "Several values for one entry are separate records, joined by “and”; a condition that tells them apart may be missing. Equal entries are not always repeated."}
{"binder": "human DNA polymerase θ helicase domain (residues 1-894), O75417 1-894 (domain or fragment) MNLLRRSGKRRRSESGSDSFSGSGGDSSASPQFLSGSVLSPPPGLGRCLKAAAAGECKPTVPDYERDKLLLANWGLPKAVLEKYHSFGVKKMFEWQAECLLLGQVLEGKNLVYSAPTSAGKTLVAELLILKRVLEMRKKALFILPFVSVAKEKKYYLQSLFQEVGIKVDGYMGSTSPSRHFSSLDIAVCTIERANGLINRLIEENKMDLLGMVVVDELHMLGDSHRGYLLELLLTKICYITRKSASCQADLASSLSNAVQIVGMSATLPNLELVASWLNAELYHTDFRPVPLLESVKVGNSIYDSSMKLVREFEPMLQVKGDEDHVVSLCYETICDNHSVLLFCPSKKWCEKLADIIAREFYNLHHQAEGLVKPSECPPVILEQKELLEVMDQLRRLPSGLDSVLQKTVPWGVAFHHAGLTFEERDIIEGAFRQGLIRVLAATSTLSSGVNLPARRVIIRTPIFGGRPLDILTYKQMVGRAGRKGVDTVGESILICKNSEKSKGIALLQGSLKPVRSCLQRREGEEVTGSMIRAILEIIVGGVASTSQDMHTYAACTFLAASMKEGKQGIQRNQESVQLGAIEACVMWLLENEFIQSTEASDGTEGKVYHPTHLGSATLSSSLSPADTLDIFADLQRAMKGFVLENDLHILYLVTPMFEDWTTIDWYRFFCLWEKLPTSMKRVAELVGVEEGFLARCVKGKVVARTERQHRQMAIHKRFFTSLVLLDLISEVPLREINQKYGCNRGQIQSLQQSAAVYAGMITVFSNRLGWHNMELLLSQFQKRLTFGIQRELCDLVRVSLLNAQRARVLYASGFHTVADLARANIVEVEVILKNAVPFKSARKAVDEEEEAVEERRNMRTIWVTGRKGLTEREAAALIVEEARMILQQDLVEM", "values": [{"measurement": "stoichiometry N", "setting": "[1]", "value": "2 and 4"}, {"measurement": "stoichiometry N", "setting": "[2]", "value": 2}, {"measurement": "stoichiometry N", "setting": "[3]", "value": 2}]}
